From article PMC10653388

Target: endogenous S. cerevisiae TREX complex (S. cerevisiae) (UniProt P17629)
Assay: negative-stain EM

endogenous S. cerevisiae TREX complex, P17629;P53552;P33441;O13539;P53851;Q07478;Q12159;P25555;P38922
stoichiometry N: 2
